Positions count from the first letter of the chain named. Names may count otherwise.
Target: T1, CD3ε homodimer protein (human, UniProt P07766 23-126, limits assumed)
T1 construct: also called CD3 (CD3ε)
Assay: SPR Biacore T200, CD3ε homodimer on chip;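 note: Light-chain single-residue variant antibodies injected over amine-coupled CD3ε homodimer on a CM4 chip at 25 °C, bound amount divided by that of the GLS3000-containing antibody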

T1 sequence (P07766 23-126 limits assumed): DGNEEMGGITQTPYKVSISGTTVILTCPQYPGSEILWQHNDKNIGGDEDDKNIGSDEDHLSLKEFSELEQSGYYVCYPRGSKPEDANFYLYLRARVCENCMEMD

B1: GLS3000 H27dA one-arm antibody (antibody, human IgG1, kappa, L234A L235A, N297A, name in Kabat numbering)
heavy: QVQLVESGGGVVQPGRSLRLSCAASGFTFSNAWMHWVRQAPGKGLEWVAQIKAKSNNYATYYAESVKGRFTISRDDSKNSLYLQMNSLKTEDTAVYYCRYVHYGAYYGVDAWGQGTTVTVSSASTKGPSVFPLAPSSKSTSGGTAALGCLVKDYFPEPVTVSWNSGALTSGVHTFPAVLQSSGLYSLSSVVTVPSSSLGTQTYICNVNHKPSNTKVDKKVEPKSCDKTHTCPPCPAPEAAGGPSVFLFPPKPKDTLMISRTPEVTCVVVDVSHEDPEVKFNWYVDGVEVHNAKTKPREEQYASTYRVVSVLTVLHQDWLNGKEYKCKVSNKALPAPIEKTISKAKGQPREPQVYTLPPSRCELTKNQVSLSCAVKGFYPSDIAVEWESNGQPENNYKTTPPVLDSDGSFFLVSKLTVDKSRWQQGNVFSCSVMHEALHNHYTQKSLSLSPDYKDDDDK
chain: EPKSSDKTHTCPPCPAPELLGGPSVFLFPPKPKDTLMISRTPEVTCVVVDVSHEDPEVKFNWYVDGVEVHNAKTKPREEQYNSTYRVVSVLTVLHQDWLNGKEYKCKVSNKALPAPIEKTISKAKGQPREPQVCTLPPSRDELTKNQVSLWCLVKGFYPSDIAVEWESNGQPENNYKTTPPVLDSDGSFFLYSKLTVDKSRWQQGNVFSCSVMHEALHNRYTQKSLSLSP
light: DIVMTQSPLSLPVTPGEPASISCRSSQSLVASNRNTYLHWYQQKPGQAPRLLIYKVSNRFSGVPDRFSGSGSGTDFTLKISRVEAEDVGVYYCGQGTQVPYTFGQGTKLEIKRTVAAPSVFIFPPSDEQLKSGTASVVCLLNNFYPREAKVQWKVDNALQSGNSQESVTEQDSKDSTYSLSSTLTLSKADYEKHKVYACEVTHQGLSSPVTKSFNRGEC
  ratio of amount bound vs unaltered GLS3000: 0.48

B2: GLS3000 F55L one-arm antibody (antibody, human IgG1, kappa, L234A L235A, N297A, name in Kabat numbering)
heavy: B1 heavy
chain: B1 chain
light: B1 light with A31H, F60L
  ratio of amount bound vs unaltered GLS3000: 0.76

B3: GLS3000 F55W one-arm antibody (antibody, human IgG1, kappa, L234A L235A, N297A, name in Kabat numbering)
heavy: B1 heavy
chain: B1 chain
light: B1 light with A31H, F60W
  ratio of amount bound vs unaltered GLS3000: 0.69

B4: GLS3000 F55D one-arm antibody (antibody, human IgG1, kappa, L234A L235A, N297A, name in Kabat numbering)
heavy: B1 heavy
chain: B1 chain
light: B1 light with A31H, F60D
  ratio of amount bound vs unaltered GLS3000: 0.65

B5: GLS3000 F55E one-arm antibody (antibody, human IgG1, kappa, L234A L235A, N297A, name in Kabat numbering)
heavy: B1 heavy
chain: B1 chain
light: B1 light with A31H, F60E
  ratio of amount bound vs unaltered GLS3000: 0.72

B6: GLS3000 G89A one-arm antibody (antibody, human IgG1, kappa, L234A L235A, N297A, name in Kabat numbering)
heavy: B1 heavy
chain: B1 chain
light: B1 light with A31H, G94A
  ratio of amount bound vs unaltered GLS3000: 1.13

B7: GLS3000 F55G one-arm antibody (antibody, human IgG1, kappa, L234A L235A, N297A, name in Kabat numbering)
heavy: B1 heavy
chain: B1 chain
light: B1 light with A31H, F60G
  ratio of amount bound vs unaltered GLS3000: 1.31

B8: GLS3000 F55N one-arm antibody (antibody, human IgG1, kappa, L234A L235A, N297A, name in Kabat numbering)
heavy: B1 heavy
chain: B1 chain
light: B1 light with A31H, F60N
  ratio of amount bound vs unaltered GLS3000: 0.98

B9: GLS3000 F55T one-arm antibody (antibody, human IgG1, kappa, L234A L235A, N297A, name in Kabat numbering)
heavy: B1 heavy
chain: B1 chain
light: B1 light with A31H, F60T
  ratio of amount bound vs unaltered GLS3000: 0.41

B10: GLS3000 F55A one-arm antibody (antibody, human IgG1, kappa, L234A L235A, N297A, name in Kabat numbering)
heavy: B1 heavy
chain: B1 chain
light: B1 light with A31H, F60A
  ratio of amount bound vs unaltered GLS3000: 1.13

B11: GLS3000 G89D one-arm antibody (antibody, human IgG1, kappa, L234A L235A, N297A, name in Kabat numbering)
heavy: B1 heavy
chain: B1 chain
light: B1 light with A31H, G94D
  ratio of amount bound vs unaltered GLS3000: 0.33

B12: GLS3000 F55I one-arm antibody (antibody, human IgG1, kappa, L234A L235A, N297A, name in Kabat numbering)
heavy: B1 heavy
chain: B1 chain
light: B1 light with A31H, F60I
  ratio of amount bound vs unaltered GLS3000: 0.82

B13: GLS3000 F55V one-arm antibody (antibody, human IgG1, kappa, L234A L235A, N297A, name in Kabat numbering)
heavy: B1 heavy
chain: B1 chain
light: B1 light with A31H, F60V
  ratio of amount bound vs unaltered GLS3000: 0.71

B14: GLS3000 F55M one-arm antibody (antibody, human IgG1, kappa, L234A L235A, N297A, name in Kabat numbering)
heavy: B1 heavy
chain: B1 chain
light: B1 light with A31H, F60M
  ratio of amount bound vs unaltered GLS3000: 0.8

B15: GLS3000 F55Q one-arm antibody (antibody, human IgG1, kappa, L234A L235A, N297A, name in Kabat numbering)
heavy: B1 heavy
chain: B1 chain
light: B1 light with A31H, F60Q
  ratio of amount bound vs unaltered GLS3000: 0.91

B16: GLS3000 F55H one-arm antibody (antibody, human IgG1, kappa, L234A L235A, N297A, name in Kabat numbering)
heavy: B1 heavy
chain: B1 chain
light: B1 light with A31H, F60H
  ratio of amount bound vs unaltered GLS3000: 0.94

B17: GLS3000 F55Y one-arm antibody (antibody, human IgG1, kappa, L234A L235A, N297A, name in Kabat numbering)
heavy: B1 heavy
chain: B1 chain
light: B1 light with A31H, F60Y
  ratio of amount bound vs unaltered GLS3000: 0.92

B18: GLS3000 F55K one-arm antibody (antibody, human IgG1, kappa, L234A L235A, N297A, name in Kabat numbering)
heavy: B1 heavy
chain: B1 chain
light: B1 light with A31H, F60K
  ratio of amount bound vs unaltered GLS3000: 1.33

B19: GLS3000 F55R one-arm antibody (antibody, human IgG1, kappa, L234A L235A, N297A, name in Kabat numbering)
heavy: B1 heavy
chain: B1 chain
light: B1 light with A31H, F60R
  ratio of amount bound vs unaltered GLS3000: 1.31

B20: GLS3000 G89F one-arm antibody (antibody, human IgG1, kappa, L234A L235A, N297A, name in Kabat numbering)
heavy: B1 heavy
chain: B1 chain
light: B1 light with A31H, G94F
  ratio of amount bound vs unaltered GLS3000: 1.09

B21: GLS3000 F55P one-arm antibody (antibody, human IgG1, kappa, L234A L235A, N297A, name in Kabat numbering)
heavy: B1 heavy
chain: B1 chain
light: B1 light with A31H, F60P
  ratio of amount bound vs unaltered GLS3000: 1.16

B22: GLS3000 F55S one-arm antibody (antibody, human IgG1, kappa, L234A L235A, N297A, name in Kabat numbering)
heavy: B1 heavy
chain: B1 chain
light: B1 light with A31H, F60S
  ratio of amount bound vs unaltered GLS3000: 0.69

B23: GLS3000 G89E one-arm antibody (antibody, human IgG1, kappa, L234A L235A, N297A, name in Kabat numbering)
heavy: B1 heavy
chain: B1 chain
light: B1 light with A31H, G94E
  ratio of amount bound vs unaltered GLS3000: 0.26

Reference: US20260049138A1 (Chugai, published 2026)
